Reference: the Human Domainome abundance scans (Beltran et al. 2025)
± gives the uncertainty stated by the source.

B1: Androgen receptor, residues 557 to 632; numbered along this chain, P10275 (parent)
chain: QKTCLICGDEASGCHYGALTCGSCKVFFKRAAEGKQKYLCASRNDCTIDKFRRKNCPSCRLRKCYEAGMTLGARKL

Variants of: B1
Test: abundance fitness (aPCA) (normalised: wild type 0, dead -1); higher = more abundant; growth selection in yeast, the domain comes from the species named
Details: Homo sapiens

| Variant | abundance fitness |
| --- | --- |
| T47G | -0.079 ± 0.029 |
| G17L | -0.552 ± 0.048 |
| T20R | -0.859 ± 0.063 |
| K29P | -0.377 ± 0.07 |
| L39C | -0.069 ± 0.053 |
| N44T | -0.159 ± 0.068 |
| Y38P | -0.007 ± 0.063 |
| G8S | -0.165 ± 0.078 |
| E33T | -0.058 ± 0.051 |
| C46A | -0.904 ± 0.17 |
| I48W | -0.37 ± 0.041 |
| A18H | -0.799 ± 0.15 |
| K50W | -0.227 ± 0.099 |
| I6C | -0.327 ± 0.21 |
| L39V | 0.029 ± 0.031 |
| G68D | -0.581 ± 0.47 |
| I6V | -0.243 ± 0.07 |
| T3H | -0.225 ± 0.2 |
| T3R | -0.083 ± 0.064 |
| S23Y | -0.122 ± 0.057 |
| C14D | 0.081 ± 0.11 |
| K37A | 0.038 ± 0.045 |
| R30Y | -0.191 ± 0.063 |
| D45M | -0.206 ± 0.15 |

| Variant | abundance fitness |
| --- | --- |
| A32Y | -0.145 ± 0.065 |
| Y16A | -0.397 ± 0.035 |
| K50C | -0.103 ± 0.27 |
| K50D | -0.403 ± 0.35 |
| L71H | -0.164 ± 0.084 |
| N44A | -0.064 ± 0.045 |
| A31Y | 0.086 ± 0.067 |
| P57Q | -0.095 ± 0.078 |
| H15C | -0.037 ± 0.11 |
| G8Y | 0.036 ± 0.19 |
| L19C | -0.19 ± 0.16 |
| A32H | -0.233 ± 0.093 |
| A31P | -0.519 ± 0.17 |
| R52Q | -0.063 ± 0.1 |
| Y38D | -0.059 ± 0.094 |
| Q36Y | -0.189 ± 0.064 |
| I48M | -0.154 ± 0.058 |
| L71K | 0.041 ± 0.1 |
| I6A | -0.427 ± 0.12 |
| A41V | 0.01 ± 0.061 |
| K25S | 0.03 ± 0.022 |
| Y65Q | -0.037 ± 0.14 |
| K63H | -0.423 ± 0.1 |
| L39D | -0.068 ± 0.047 |

| Variant | abundance fitness |
| --- | --- |
| C40D | -1.14 ± 0.25 |
| G8V | -0.868 ± 0.26 |
| K35Y | -0.034 ± 0.069 |
| L19S | -0.109 ± 0.051 |
| S58V | -0.16 ± 0.085 |
| C46F | -0.912 ± 0.12 |
| R52P | 0.004 ± 0.063 |
| S58K | -0.125 ± 0.097 |
| L39E | 0.054 ± 0.036 |
| K37G | -0.08 ± 0.039 |
| S12V | -0.025 ± 0.052 |
| S58P | 0.013 ± 0.062 |
| P57D | 0.1 ± 0.069 |
| K37S | -0.086 ± 0.062 |
| I48Q | -0.203 ± 0.047 |
| D45Y | -0.176 ± 0.25 |
| T47S | -0.015 ± 0.032 |
| T20Q | -0.856 ± 0.12 |
| R30Q | -0.029 ± 0.089 |
| G13C | -0.311 ± 0.24 |
| C14L | 0 ± 0.056 |
| K35Q | 0.007 ± 0.068 |
| C46R | -0.892 ± 0.073 |
| K29W | 0.035 ± 0.15 |

| Variant | abundance fitness |
| --- | --- |
| F27Y | -0.598 ± 0.068 |
| T20G | -0.539 ± 0.042 |
| R52H | -0.076 ± 0.078 |
| C21Y | -0.849 ± 0.2 |
| A18V | -0.04 ± 0.033 |
| G72H | -0.046 ± 0.15 |
| C46Y | -1.06 ± 0.19 |
| C56V | -1.15 ± 0.31 |
| D45V | -0.12 ± 0.062 |
| K63M | -0.133 ± 0.1 |
| S23E | -0.013 ± 0.034 |
| C7W | -0.79 ± 0.47 |
| I6L | -0.789 ± 0.19 |
| Y65G | -0.218 ± 0.064 |
| C7S | -0.615 ± 0.17 |
| L19I | -0.034 ± 0.1 |
| C56K | -0.848 ± 0.37 |
| D9K | -0.53 ± 0.17 |
| R52K | -0.033 ± 0.11 |
| P57I | -0.167 ± 0.087 |
| K35H | -0.044 ± 0.075 |
| K37L | -0.126 ± 0.055 |
| A31N | -0.144 ± 0.14 |
| C7T | -0.819 ± 0.47 |

| Variant | abundance fitness |
| --- | --- |
| Y16P | -0.455 ± 0.052 |
| A73C | -0.297 ± 0.12 |
| V26N | 0.069 ± 0.05 |
| R52M | -0.067 ± 0.12 |
| N44V | -0.343 ± 0.068 |
| D45P | -0.221 ± 0.29 |
| S12E | 0.047 ± 0.054 |
| V26Q | 0.007 ± 0.05 |
| C56Q | -1.01 ± 0.32 |
| R30A | -0.094 ± 0.093 |
| A41Y | 0.044 ± 0.081 |
| A41T | -0.056 ± 0.078 |
| K37I | -0.091 ± 0.15 |
| V26K | 0.058 ± 0.037 |
| N44I | -0.433 ± 0.21 |
| V26F | -0.13 ± 0.058 |
| C14W | -0.419 ± 0.16 |
| F27D | -0.519 ± 0.085 |
| C14F | -0.1 ± 0.11 |
| P57H | 0.02 ± 0.07 |
| K29Q | -0.169 ± 0.11 |
| Y38T | -0.179 ± 0.08 |
| K29F | 0.019 ± 0.24 |
| L71D | -0.185 ± 0.15 |

| Variant | abundance fitness |
| --- | --- |
| R52L | -0.044 ± 0.052 |
| S58C | 0.075 ± 0.081 |
| G8W | -0.529 ± 0.12 |
| K50M | -0.195 ± 0.13 |
| C21K | -0.988 ± 0.17 |
| A31C | -0.072 ± 0.062 |
| E33L | -0.173 ± 0.046 |
| C64A | -0.306 ± 0.096 |
| I6K | -1.05 ± 0.28 |
| I48V | -0.02 ± 0.032 |
| S58I | -0.577 ± 0.098 |
| R74K | -0.263 ± 0.27 |
| C14G | -0.11 ± 0.054 |
| I48F | -0.226 ± 0.042 |
| A31E | -0.093 ± 0.068 |
| C56M | -0.662 ± 0.24 |
| C4R | -0.114 ± 0.074 |
| K50R | -0.068 ± 0.073 |
| K25M | 0.013 ± 0.027 |
| Q1R | -0.228 ± 0.066 |
| L19N | -0.065 ± 0.057 |
| C7G | -0.874 ± 0.15 |
| I6Q | -0.459 ± 0.26 |
| K25G | 0.013 ± 0.021 |

| Variant | abundance fitness |
| --- | --- |
| L5M | -0.212 ± 0.083 |
| A31L | -0.225 ± 0.053 |
| Q36E | 0.031 ± 0.063 |
| A32L | -0.167 ± 0.046 |
| G72D | 0.098 ± 0.11 |
| D45G | -0.162 ± 0.056 |
| S12G | -0.056 ± 0.041 |
| Q36H | -0.01 ± 0.065 |
| G72T | -0.056 ± 0.12 |
| D45F | -0.498 ± 0.24 |
| L5Y | -0.162 ± 0.049 |
| G22C | -0.064 ± 0.051 |
| Q1G | 0.048 ± 0.066 |
| C56S | -0.776 ± 0.12 |
| N44D | -0.002 ± 0.091 |
| N44F | -0.158 ± 0.16 |
| F27K | -0.816 ± 0.072 |
| T47Q | -0.075 ± 0.047 |
| S12H | -0.237 ± 0.17 |
| D9C | -0.053 ± 0.1 |
| P57K | -0.043 ± 0.11 |
| D9E | -0.171 ± 0.085 |
| A31I | -0.387 ± 0.17 |
